Results from US7029857B1, “Processes for obtaining compounds employing SNORF72 receptors” (H. Lundbeck A/S, priority 1999, dated 2006).
Values joined by “and” are separate entries in the source; they are usually repeats but may differ in a detail not shown here. Equal entries are not always repeated. No end group written: not given here.

T1: SNORF62 (Homo sapiens, UniProt Q9HB89)
T1 sequence (Q9HB89 1-426): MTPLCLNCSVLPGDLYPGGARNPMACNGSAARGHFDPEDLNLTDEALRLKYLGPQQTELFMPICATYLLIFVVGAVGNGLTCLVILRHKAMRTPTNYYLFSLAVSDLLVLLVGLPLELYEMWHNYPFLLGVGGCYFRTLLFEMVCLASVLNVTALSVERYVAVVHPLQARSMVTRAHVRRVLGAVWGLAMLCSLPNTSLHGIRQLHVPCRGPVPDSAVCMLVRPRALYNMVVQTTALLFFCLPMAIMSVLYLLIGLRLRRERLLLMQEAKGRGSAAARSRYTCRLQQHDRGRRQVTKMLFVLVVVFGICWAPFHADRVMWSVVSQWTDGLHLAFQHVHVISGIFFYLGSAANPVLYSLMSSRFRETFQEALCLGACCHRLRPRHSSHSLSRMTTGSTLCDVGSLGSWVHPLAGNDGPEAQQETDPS

T2: human SNORF62 receptor (human, UniProt Q9HB89 1-426)
T2 sequence: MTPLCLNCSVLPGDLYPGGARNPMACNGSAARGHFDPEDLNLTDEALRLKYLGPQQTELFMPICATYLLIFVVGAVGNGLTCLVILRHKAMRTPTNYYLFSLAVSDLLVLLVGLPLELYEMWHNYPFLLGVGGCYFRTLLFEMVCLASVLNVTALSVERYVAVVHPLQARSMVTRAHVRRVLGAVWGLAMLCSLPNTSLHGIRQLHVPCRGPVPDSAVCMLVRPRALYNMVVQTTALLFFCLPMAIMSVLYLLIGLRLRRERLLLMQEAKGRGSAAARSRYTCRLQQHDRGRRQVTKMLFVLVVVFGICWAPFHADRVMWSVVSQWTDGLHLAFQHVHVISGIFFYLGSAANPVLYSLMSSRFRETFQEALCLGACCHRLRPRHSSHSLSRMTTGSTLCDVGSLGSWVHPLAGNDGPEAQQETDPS


How the values were obtained:
SNORF72 = target: T3, SNORF72 (Homo sapiens, UniProt Q9GZQ4, A395T); assay: Intracellular Ca2+ release (FLIPR) in SNORF72-transfected COS-7 cells; format: cell-based; conditions: stimulation of Ca2+ release, SNORF72-transfected COS-7 cells, n = 2-7 (Table 1A)
T3 construct: expressed in transfected cells; host or cells: COS-7 (transient, DEAE-dextran)
T3 sequence (Q9GZQ4 whole entry A395T): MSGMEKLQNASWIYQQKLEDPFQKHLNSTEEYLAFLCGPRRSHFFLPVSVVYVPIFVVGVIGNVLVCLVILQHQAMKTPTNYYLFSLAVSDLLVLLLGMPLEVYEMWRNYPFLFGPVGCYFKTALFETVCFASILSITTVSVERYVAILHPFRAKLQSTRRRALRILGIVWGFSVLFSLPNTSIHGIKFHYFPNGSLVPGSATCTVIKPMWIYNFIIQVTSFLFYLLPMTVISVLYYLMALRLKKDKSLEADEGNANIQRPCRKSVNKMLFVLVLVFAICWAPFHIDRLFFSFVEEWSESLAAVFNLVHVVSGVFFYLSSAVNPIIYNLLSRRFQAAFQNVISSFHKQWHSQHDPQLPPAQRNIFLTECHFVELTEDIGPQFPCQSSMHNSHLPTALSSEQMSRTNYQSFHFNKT
Procedure: (§1) A typical protocol for the DEAE-dextran method as applied to COS-7 and HEK293 cells is described as follows. Cells to be used for transfection are split 24 hours prior to the transfection to provide flasks which are 70–80% confluent at the time of transfection. Briefly, 8 μg of receptor DNA plus 8 μg of any additional DNA needed (e.g. Gα protein expression vector, reporter construct, antibiotic resistance marker, mock vector, etc.) are added to 9 ml of complete DMEM plus DEAE-dextran mixture (10 mg/ml in PBS). Cells plated into a T225 flask (sub-confluent) are washed once with PBS and the DNA mixture is added to each flask. The cells are allowed to incubate for 30 minutes at 37° C., 5% CO2. Following the incubation, 36 ml of complete DMEM with 80 μM chloroquine is added to each flask and allowed to incubate an additional 3 hours. The medium is then aspirated and 24 ml of complete medium containing 10% DMSO for exactly 2 minutes and then aspirated. The cells are then washed 2 times with PBS and 30 ml of complete DMEM added to each flask. The cells are then allowed to incubate over night. The next day the cells are harvested by trypsinization and reseeded into 96 well plates.
(§2) Cells expressing the receptor of interest are plated into clear, flat-bottom, black-walled 96-well plates (Costar) at a density of 80,000–150,000 cells per well and allowed to incubate for 48 hr at 5% CO2, 37° C. The growth medium is aspirated and 100 μL of loading medium containing Fluo-3 dye is added to each well. The loading medium contains: 20 mM HEPES (Sigma), 0.1% BSA (Sigma), dye/pluronic acid mixture (e.g. 1 mM Fluo-3/AM (Molecular Probes) and 10% pluronic acid (Molecular Probes) mixed immediately before use), and 2.5 mM probenecid (Sigma)(prepared fresh). The cells are allowed to incubate for about 1 hour at 5% CO2, 37° C.
(§3) The compounds of interest are diluted in wash buffer (Hank's BSS (without phenol red), 20 mM HEPES, 2.5 mM probenecid) to a 4× final concentration and aliquoted into a clear v-bottom plate (Nunc). Following the dye incubation, the cells are washed 4 times to remove excess dye using a Denley plate washer. 100 μL final volume of wash buffer is then added to each cell well. Compounds are added to the cell plates and responses are measured using the FLIPR™ instrument. The data are then collected and analyzed using the FLIPR™ software and Graphpad Prism.
(§4) COS-7 cells were transiently transfected with SNORF62, SNORF72 or vector DNA (mock) as described in Materials and Methods.

SNORF62 [1] = target: T1, SNORF62; assay: Intracellular Ca2+ release (FLIPR) in SNORF62-transfected COS-7 cells; format: cell-based; design: The SNORF62 cDNA codes for a protein of 426 amino acids; expressed in transfected cells; host or cells: COS-7 (transient, DEAE-dextran); conditions: stimulation of Ca2+ release, SNORF62-transfected COS-7 cells, n = 2-7 (Table 1A)
Procedure: as §1, §2, §3, §4

SNORF62 [2] = target: T1, SNORF62; assay: Displacement of [125I]rat NMU-23 binding in SNORF62-transfected COS-7 membranes; design: The SNORF62 cDNA codes for a protein of 426 amino acids; expressed in transfected cells; host or cells: COS-7 (transient, DEAE-dextran); conditions: binding affinity, SNORF62-transfected COS-7 cells (Table 1A); read-out: SNORF62 Avg Ki
Procedure: The specifics of preparing such cell membranes may in some cases be determined by the nature of the ensuing assay but typically involve harvesting whole cells and disrupting the cell pellet by sonication in ice cold buffer (e.g. 20 mM Tris HCl, mM EDTA, pH 7.4 at 4° C.). The resulting crude cell lysate is cleared of cell debris by low speed centrifugation at 200×g for 5 min at 4° C. The cleared supernatant is then centrifuged at 40,000×g for 20 min at 4° C., and the resulting membrane pellet is washed by suspending in ice cold buffer and repeating the high speed centrifugation step. The final washed membrane pellet is resuspended in assay buffer. Protein concentrations are determined by the method of Bradford (1976) using bovine serum albumin as a standard. The membranes may be used immediately or frozen for later use.
(§5) Radioligand binding assays were performed by diluting membranes prepared from cells expressing the receptor in 50 mM Tris buffer (pH=7.4 at 0° C.) containing 0.1% bovine serum albumin (Sigma), aprotinin (0.005 mg/ml, Boehringer Mannheim) and bestatin (0.1 mM, Sigma) as protease inhibitors. The final protein concentration in the assay was 12–40 μg/ml. […] The bound ligand was separated from free by filtration through GF/B filters presoaked in 0.5% polyethyleneimine (PEI), using a Tomtec (Wallac) vacuum filtration device. After addition of Ready Safe (Beckman) scintillation fluid, bound radioactivity was quantitated using a Trilux (Wallac) scintillation counter (approximately 40% counting efficiency of bound counts). Data was fit to non-linear curves using GraphPad Prism.
In this manner, agonist or antagonist compounds that bind to the receptor may be identified as they inhibit the binding of the labeled ligand to the membrane protein of cells expressing the said receptor. Non-specific binding was defined as the amount of radioactivity remaining after incubation of membrane protein in the presence of 100 nM of the unlabeled peptide corresponding to the radioligand used. In equilibrium saturation binding assays membrane preparations or intact cells transfected with the receptor are incubated in the presence of increasing concentrations of the labeled compound to determine the binding affinity of the labeled ligand.

SNORF62 [3] = target: T1, SNORF62; assay: Calcium-activated Cl- currents in Xenopus oocytes injected with SNORF62 mRNA; format: cell-based; design: from linearized plasmids or PCR products containing the complete coding region of the gene; expressed in transfected cells; host or cells: Xenopus laevis oocytes injected with in vitro transcribed SNORF62 mRNA; conditions: 1 μM peptide, n=3
Procedure: Heterologous expression of GPCRs in Xenopus oocytes has been widely used to determine the identity of signaling pathways activated by agonist stimulation (Gundersen et al., 1983; Takahashi et al., 1987). Activation of the phospholipase C (PLC) pathway is assayed by applying a test compound in ND96 solution to oocytes previously injected with mRNA for the human SNORF62 and observing inward currents at a holding potential of approximately −80 mV. The appearance of currents that reverse at −25 mV and display other properties of the Ca^++-activated Cl^− channel is indicative of receptor-acitivation of PLC and release of IP3 and intracellular Ca^++.
In the present invention, oocytes were harvested from Xenopus laevis and injected with mRNA transcripts as previously described (Quick and Lester, 1994; Smith et al., 1997). SNORF62 mRNA transcript was synthesized using the T7 polymerase (“Message Machine”, Ambion) from linearized plasmids or PCR products containing the complete coding region of the gene. Oocytes were injected with 1–50 ng synthetic receptor RNA and incubated for 3–8 days at 17° C. Currents were recorded under dual electrode voltage clamp (Axon Instruments Inc.) with 3 M KCl-filled glass microelectrodes having resistances of 1–2 Mohm. Unless otherwise specified, oocytes were voltage clamped at a holding potential of −80 mV. […]

human SNORF62 receptor [4] = target: T2, human SNORF62 receptor; assay: cell-based or functional assay
human SNORF72 receptor [5] = target: T4, human SNORF72 receptor (human, UniProt Q9GZQ4 1-415); assay: cell-based or functional assay
T4 sequence (Q9GZQ4 other isoform, or with tags, fused parts or gaps): as the sequence (Q9GZQ4 whole entry A395T) above

human SNORF62 receptor [6] = target: T2, human SNORF62 receptor; assay: cell-based or functional assay; remark: listed apart in the source
human SNORF62 receptor [7] = target: T2, human SNORF62 receptor; assay: cell-based or functional assay; remark: listed apart in the source
human SNORF72 receptor [8] = target: T4, human SNORF72 receptor; assay: cell-based or functional assay; remark: listed apart in the source
human SNORF62 receptor [9] = target: T2, human SNORF62 receptor; assay: displacement of [125I]rat NMU-23, membranes of SNORF62-transfected COS-7 cells
Procedure: as §5, with “µg/ml.” for “μg/ml.”

human SNORF72 receptor [10] = target: T4, human SNORF72 receptor; assay: displacement of [125I]rat NMU-23, membranes of SNORF72-transfected COS-7 cells
Procedure: as §5, with “µg/ml.” for “μg/ml.”

human SNORF62 receptor [11] = target: T2, human SNORF62 receptor; assay: displacement of [125I]rat NMU-23 (0.05-0.1 nM), membranes of SNORF62-transfected COS-7 cells, n=2
Procedure: as §5, with “µg/ml.” for “μg/ml.”

human SNORF72 receptor [12] = target: T4, human SNORF72 receptor; assay: displacement of [125I]rat NMU-23 (0.05-0.1 nM), membranes of SNORF72-transfected COS-7 cells, n=2
Procedure: as §5, with “µg/ml.” for “μg/ml.”

human SNORF62 receptor [13] = target: T2, human SNORF62 receptor; assay: saturation radioligand binding, membranes of SNORF62-transfected COS-7 cells, n=2
Procedure: as §5, with “µg/ml.” for “μg/ml.”

human SNORF72 receptor [14] = target: T4, human SNORF72 receptor; assay: saturation radioligand binding, membranes of SNORF72-transfected COS-7 cells, n=2
Procedure: as §5, with “µg/ml.” for “μg/ml.”

EC50, release of IP second messengers in SNORF62-transfected COS-7 cells (human SNORF62 receptor [4]) [nM] | EC50, Ca2+ release in SNORF72-transfected COS-7 cells (human SNORF72 receptor [5]) | AVG EC50 (nM), stimulation of Ca++ release in SNORF62-transfected COS-7 cells (FLIPR) (human SNORF62 receptor [6]) [nM] | Avg EC50 (nM), stimulation of Ca2+ release in SNORF62-transfected COS-7 cells (human SNORF62 receptor [7]) [nM] | Avg EC50 (nM), stimulation of Ca2+ release in SNORF72-transfected COS-7 cells (human SNORF72 receptor [8]) [nM] | Ki (human SNORF62 receptor [9]) [nM] | Ki (human SNORF72 receptor [10]) [nM] | pKi (human SNORF62 receptor [11]) | pKi (human SNORF72 receptor [12]) | release of IP second messengers, fold above basal, in SNORF62-transfected COS-7 cells (human SNORF62 receptor [4]) [fold] | Kd (human SNORF62 receptor [13]) | Kd (human SNORF72 receptor [14]) | Molecule | EC50 (SNORF72) [nM] | EC50 (SNORF62 [1]) [nM] | Ki (SNORF62 [2]) [nM] | current amplitude (SNORF62 [3]) [nA]
– | – | – | – | – | – | – | – | – | – | – | – | CC[C@H](C)[C@H](NC(=O)[C@@H]1CCCN1C(=O)CNC(=O)[C@H](CCC(N)=O)NC(=O)[C@H](Cc1ccccc1)NC(=O)[C@H](CCC(=O)O)NC(=O)[C@H](CCC(=O)O)NC(=O)[C@H](CC(=O)O)NC(=O)[C@@H](NC(=O)[C@H](CCCCN)NC(=O)[C@@H](N)Cc1ccccc1)C(C)C)C(=O)N[C@H](C(=O)N[C@@H](CO)C(=O)N[C@@H](CCC(N)=O)C(=O)N[C@@H](CC(N)=O)C(=O)N[C@@H](CCCNC(=N)N)C(=O)N[C@@H](CCCNC(=N)N)C(=O)N[C@@H](Cc1ccc(O)cc1)C(=O)N[C@@H](Cc1ccccc1)C(=O)N[C@@H](CC(C)C)C(=O)N[C@@H](Cc1ccccc1)C(=O)N[C@@H](CCCNC(=N)N)C(=O)N1CCC[C@H]1C(=O)N[C@@H](CCCNC(=N)N)C(=O)N[C@@H](CC(N)=O)C(N)=O)C(C)C [porcine NMU-25, FKVDEEFQGPIVSQNRRYFLFRPRN—NH2] | 3 ± 0.7 | 5.2 ± 0.8 | 1.1 ± 0.2 | 2150±330
0.23 | 1.7 nM and 5.1 nM | 2.1 | 2.1 | 5 | 0.5 | 0.5 | 9.4 | 9 | – | – | – | YKVNEYQGPVAPSGGFFLFRPRN-NH2 (also called rat neuromedin U-23) [rat NMU-23] | – | – | – | –
0.25 | – | 4 | 4 | 2.4 | 2 | – | 8.7 | 8.5 | ~2 | – | – | FRVDEEFQSPFASQSRGYFLFRPRN-NH2 (also called human neuromedin U-25) [human NMU-25] | – | – | – | –
– | – | – | – | – | – | – | – | – | – | 0.61 nM and 0.72 nM | 0.81 nM and 0.96 nM | YKVNEYQGPVAPSGGFFLFRPRN-NH2 (also: 125I-labelled, residue not given here, Radioligand from NEN, specific activity 2200 Ci/mmole; also called radioiodinated rat NMU-23) [[125I]rat NMU-23] | – | – | – | –
